From the supplement of paper PMC12042874 come the findings set out here.

The series in a line: amyloid nucleation score (Sup35N fusion, yeast selection) (log enrichment); library NNK1; higher = more nucleation; inactive = no reads after selection. In short, it runs like this: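 Peptides of 20 random codons fused to Sup35N were expressed in psi-negative yeast, induced 24 hours with 100 μM copper sulfate, then grown 7 days at 30°C on medium lacking adenine and uracil. Input and output plasmid inserts were Illumina-sequenced. Nucleation score is the DiMSum log enrichment of output over input reads, centred on the mode score of non-aggregating sequences, excluding sequences with under 100 input reads. Random libraries had three technical output replicates.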

± gives the uncertainty stated by the source.

For VESVSWVCDRCTGLVLVWSG, the amyloid nucleation score entry was “inactive”. With GMRVMRYYLPRGNQKFGESR, the amyloid nucleation score came out at 0.823 ± 0.63. Take LKKHADNSLDVRS: the amyloid nucleation score entry was “inactive”. Turning to NSATRREPSVVGLYWSVR, the amyloid nucleation score is -2.42 ± 2.7.

Take PFTNQPMSPARHLFI: the amyloid nucleation score is -1.88 ± 2.4.

For IRHNTRRSSIRTET, the amyloid nucleation score was 0.086 ± 0.49. As for GFYGNIYFDNLRLNVMTRRG, the amyloid nucleation score came to 9.21 ± 0.061. Turning to RIRNSEAGMLYTLYVTRLVD, the amyloid nucleation score was -0.007 ± 0.31. Consider YSRMQVAIYMYLVE, for which the amyloid nucleation score is 3.19 ± 0.17. Take TMIWFQLRTTLLNYQATVFL: the amyloid nucleation score result was “inactive”.

IDMTEMKIRWV: the amyloid nucleation score was -0.208 ± 0.27.

The substance AESLWQFTWQVTKPHEEGSE returned an amyloid nucleation score of 4.35 ± 0.068. For LYFMSISTMAIRSCGVGLHQ, the amyloid nucleation score is 0.235 ± 0.37. In turn, LSWYPCWVARSTMALDGYGV showed an amyloid nucleation score of -0.776 ± 0.55. Take SIDRIRVSVHPLAFKIYLDV: the amyloid nucleation score was determined as 0.497 ± 0.43.

For KSTSRPCHWIYWMWMVYPRY, the amyloid nucleation score came to 0.445 ± 0.81. FINHKHKQDQVI came in with an amyloid nucleation score of 1.48 ± 0.49.

Consider IAVPRRQPINLSN, for which the amyloid nucleation score amounted to 0.668 ± 0.56. The figure for NFPKYGFQGVFRTPMWYGFF is -1.63 ± 1.1; for PGLFYETDHVASVVVCKSPH it is -0.231 ± 0.45; for YTYVSMPGR it is -0.358 ± 0.34. RMYITMSQSRKVVICVMMVM had an amyloid nucleation score of -0.164 ± 1.1. Next, TSVLLQHGLWIGS: 0.685 ± 0.34; GSHSRGY: -0.289 ± 0.36; SGVWNEFEGCWMVDDVIDPL: 0.268 ± 0.44. For the substance CVSIQDHFRGYKALDPAWFV, the amyloid nucleation score stood at 0.805 ± 0.27. Substance SLMIDRTRLGGN yielded an amyloid nucleation score of 0.769 ± 0.17. The figure for AVFGTIIESFMSGG is 0.399 ± 0.34; for HSHHGSSV it is 1.08 ± 0.76; for NLLTMDIERTGECIDFWVD it is 0.008 ± 0.38.

As for LIWWFEGRPRVSGGFSVFDV, the amyloid nucleation score was -0.304 ± 1.1.

In turn, RQFSSTRFCREHRITGMQLG yielded an amyloid nucleation score of 0.369 ± 0.79.

On to WTRCHK, for which the amyloid nucleation score is -0.297 ± 0.35. Next, WKNLGQV: -0.327 ± 0.39; WTMLDMFLFS: -0.872 ± 0.42. The figure for NCFLCSVARNNYVLRCPSSN is 6.07 ± 0.067; for YVLWNRASIAPYIQHGLRVL it is 1.19 ± 0.19; for IYNGVTGRYWTSHI it is -0.989 ± 0.7. On to LGYIVRFQCMYTRRYCSCPD, for which the amyloid nucleation score was -1.47 ± 2.7. With TFMHARDYDMNS, the amyloid nucleation score is -0.666 ± 0.86.

On to NSGESLS, for which the amyloid nucleation score was -0.186 ± 0.85. For the substance PDMCQERNYCELYPCKARAT, the amyloid nucleation score is -0.612 ± 0.41. Substance HDGLLVFAFHY showed an amyloid nucleation score of -0.378 ± 1.4. IGTGLLS displayed an amyloid nucleation score of 0.451 ± 0.62. Take TPSSAFFDAMLNLQQVQSKC: the amyloid nucleation score result was “inactive”. Turning to HVYVWKRTVPGIGRDQHNSR, the amyloid nucleation score worked out at 1.81 ± 0.6.

With KVSEDMYSHFQQSFSQAIIV, the amyloid nucleation score result is “inactive”. Next, RAGIFKEYCSFATVKYVKDN: -1.04 ± 0.39. Next, FTTDVERSVLFEVNLWSNGW: 5.33 ± 0.066; NRNKVR: -0.2 ± 1.1. The substance HLYGVR displayed an amyloid nucleation score of 0.267 ± 0.84.

With ANLDQCYIMEWGSTESSKL, the amyloid nucleation score is 0.302 ± 1.

With RRATLSHAPGGPMGLEWSRW, the amyloid nucleation score was 0.444 ± 1.2. The substance RGSVFPCNVQVDWLRPETRA came in with an amyloid nucleation score of -0.047 ± 1.1.

GLCYNEVDAVASGESGDDRG: the amyloid nucleation score was -0.376 ± 0.45. In the case of WYSVKESLGSPSLPSQFLST, the amyloid nucleation score result was “inactive”. In turn, VIMCVSRCTVRCV gave an amyloid nucleation score of 0.486 ± 0.52.

RVSRLPFDECSFLLVTVEGI: the amyloid nucleation score came to 0.311 ± 0.49.

Take PTDMPGHVTMSRGSCLEWVL: the amyloid nucleation score turned out to be 0.355 ± 0.36. IRGTFRVSYGNGKCNSVMNY: the amyloid nucleation score turned out to be 0.201 ± 0.42. FYPLF gave an amyloid nucleation score of 1.27 ± 0.66.

In turn, FLQLLGGLRSYKTRVCMWCV yielded an amyloid nucleation score of -2.21 ± 2.7. In turn, MERYCN came in with an amyloid nucleation score of -0.148 ± 0.23.

As for RPKCWWVIGCIKRKSMSIGR, the amyloid nucleation score was 2.17 ± 0.081. Turning to MMLCSYKWVF, the amyloid nucleation score worked out at 0.1 ± 0.24. The figure for GEGQQSGVVSNLSGYRSNS is 0.418 ± 0.51. In turn, CLQCKCYNNCVQLRVTVGCM showed an amyloid nucleation score of 1.37 ± 0.52. Substance VHCHMEITSWLGRRS displayed an amyloid nucleation score of 2.8 ± 0.12. LKGHLHDSILQCRHKALFF registered an amyloid nucleation score of 0.922 ± 0.75. The figure for GRRYCRANSWLATTSSRISL is 2.1 ± 0.44; for FISVGAFGYTMILNVFN it is 5.445 ± 0.051; for LNGRYLDVLHQVIHQNVREP it is 3.01 ± 0.22. In turn, VTNVSLDCGALCSCELCKKS had an amyloid nucleation score of 7.155 ± 0.063. PLPPLVMLPQ returned an amyloid nucleation score of -0.481 ± 0.8. Consider VGNEWSVLRLGGGVGSIFL, for which the amyloid nucleation score is -1.07 ± 1.3. The figure for RPPNISLSQFYDVSCAKLRC is 0.295 ± 0.31. Turning to ASLAIGFSIKSHYVMCRVYP, the amyloid nucleation score amounted to 0.42 ± 0.35. As for WQHFLFCKKKRVESCNVSTN, the amyloid nucleation score turned out to be 1.02 ± 0.76.

As to ESWAITWVGLYGCTLTVIRN, the amyloid nucleation score is -0.148 ± 0.47. In the case of YSLTYVNSYLFGINDCKGPD, the amyloid nucleation score was 8.164 ± 0.054. SIRSVLFVSTVDDTPPYQGF: the amyloid nucleation score result is “inactive”. As for KIFERRLSMYRSVSFLSRQC, the amyloid nucleation score was 0.15 ± 0.32. For the substance SVGGWLSYRSDV, the amyloid nucleation score was -0.901 ± 0.89. For FRSGTHWSMDFGHAKEIRR, the amyloid nucleation score came to 1.39 ± 0.14. WHEMKY: the amyloid nucleation score is 1.46 ± 0.13. For FHVLG, the amyloid nucleation score was -1.35 ± 2.7.

Substance VNRYFVFVSVMIYMLCESRF had an amyloid nucleation score of 0.295 ± 0.75. Regarding MEPYYVRNSCFCRIRDRNF, the amyloid nucleation score is -0.21 ± 0.33. For YHGGYGSSHMWRFVRCIKAY, the amyloid nucleation score stood at 0.168 ± 0.27. VCMLVHLVTFAPNS had an amyloid nucleation score of 2.61 ± 0.26. FLLMVWDIYECVGNTLKRCA showed an amyloid nucleation score of 0.027 ± 0.42.

AKHVLGNHAIRNGSKL: the amyloid nucleation score worked out at 0.258 ± 0.3.

Take FQCVILVPG: the amyloid nucleation score worked out at 1.03 ± 0.74. Next, SSCVIRKCKHERQRWMS: “inactive”; RPRSDSRGTRKDNGFDDVKL: 0.438 ± 0.39; YKKRMLSLWYYGAGIQHRAL: 0.412 ± 0.43.

Substance LYEVNWVSYRMFAVGVRYVL registered an amyloid nucleation score of -0.397 ± 0.36. Take PMTKCMLSSLGWCAHVPVRE: the amyloid nucleation score came to 0.369 ± 0.52. VDMNAEKTSSDERLWERRRT returned an amyloid nucleation score of 0.606 ± 0.65. Regarding TIRVQHYCVDRGQESVLMGS, the amyloid nucleation score was -0.524 ± 0.51. Regarding HFWLDARSRAKKPAQGIIKG, the amyloid nucleation score is -0.426 ± 0.34. LLNDSINNPQCFIVSSSGHL displayed an amyloid nucleation score of -0.541 ± 0.39. LYFRIGYSMLIATDVGFGDL showed an amyloid nucleation score of -2.74 ± 1.8.

LIPSRFMVNGDTIL displayed an amyloid nucleation score of 0.971 ± 0.28.

YINLSYPIFTNSDLFGPCWH returned an amyloid nucleation score of 3.45 ± 0.12.

In the case of QYRHTQSYRLELKVHGDFKR, the amyloid nucleation score was -0.171 ± 1.1. Take CFCPSKGDTDRLWAHFSARF: the amyloid nucleation score is -0.093 ± 0.45. GFDKLVGPCGYGLRRGSLWR displayed an amyloid nucleation score of 0.781 ± 0.52. The figure for AGSGMLSKLVLLSRKSMVIT is 1.92 ± 0.21; for VRNMVFSSGRQLYMWDKLLK it is 1.82 ± 0.66. Substance TYLRPWPFTVLLIWRRYSCL had an amyloid nucleation score of 0.244 ± 0.81. FIDIACAHFGMKSCVVL had an amyloid nucleation score of 1.32 ± 0.9.

Turning to TWSLLNIVYMSN, the amyloid nucleation score is 0.867 ± 0.39.

For the substance CFSLLNYSCFSCIDLFHPLY, the amyloid nucleation score worked out at 5.23 ± 0.084. Consider KGAIPFSSDCGGLSGLILYC, for which the amyloid nucleation score worked out at 0.301 ± 0.54. FDLFVKGECFVVRPLATSTY: the amyloid nucleation score was -0.66 ± 0.38.

Consider KNFYDIKPLYALYSENLRLH, for which the amyloid nucleation score stood at 0 ± 0.46. DCRQTAKHFPETSDNLYRLT gave an amyloid nucleation score of -0.2 ± 0.28. The figure for FWEYSSRNPQSHYTVLRSKV is -0.509 ± 0.32. Consider RGYVCTVVLSNILLGITTEG, for which the amyloid nucleation score was 3.79 ± 0.097. In the case of EPLLHSG, the amyloid nucleation score entry was “inactive”.

Turning to MGCKAKRAFVEFLSRMEVRP, the amyloid nucleation score is -0.035 ± 0.22. Next, FTRWLSFKTYG: -0.283 ± 0.66; IPNSRLLNI: 0.996 ± 0.57.

Turning to CMSLYRGFLTPEWNIFVWLA, the amyloid nucleation score amounted to 0.514 ± 0.61.

AVSIRCFGRMMTLSGSKIAG showed an amyloid nucleation score of 0.838 ± 0.25.

On to FGFHRVGSGIMRVVAQH, for which the amyloid nucleation score came to 0.242 ± 0.44.

In the case of LFDDS, the amyloid nucleation score was -0.356 ± 0.46.

ASNAARLLPDRISGSEAF returned an amyloid nucleation score of 0.591 ± 0.71. GVLRHNCFIESGRIISVMVT: the amyloid nucleation score is -0.404 ± 0.65.

Substance GRYILGFE displayed an amyloid nucleation score of 2.17 ± 0.17. For the substance RGRSIDVPRE, the amyloid nucleation score is -0.004 ± 0.53. Consider VSRTLAWLGMSRLNGSYGVC, for which the amyloid nucleation score is -0.197 ± 0.41. In the case of SPLFPRKLQVQYKTYPYG, the amyloid nucleation score entry is “inactive”. On to SILSWLFSWTMLEEVI, for which the amyloid nucleation score entry was “inactive”.

Substance SLIRSMTISDNLIMWAGWTY had an amyloid nucleation score of -0.7 ± 0.38. In the case of GYHSFGLVHEGETGK, the amyloid nucleation score result is “inactive”. The figure for YLKGVG is 0.104 ± 0.74; for VNSNPSSGAFWI it is 0.571 ± 0.87.
